Measurements taken from patent US10973840B2, “Methods of sensitizing tumor cells to weak base chemotherapeutic drugs” (SOCPRA SCIENCES SANTÉ ET HUMAINES S.E.C., priority 2017, dated 2021).

Columns and labels:
[1] = test system: HT-1080 overexpressing NHE6^527-588 peptide; experiment: MTT cell viability assay in HT-1080 expressing NHE6^527-588 or scrambled peptide; type: cell-based, human; details: HT-1080, overexpression of the fragment
Experimental: peGFP-N3-NHE6 was generously provided by Hiroshi Kanazawa (Osaka University, Japan). pcDNA3-HA/NHE6 was constructed from peGFP-N3-NHE6. For this, the entire NHE6 coding sequence was excised with BamHI and EcoRI restriction enzymes and cloned in pcDNA3-HA vector. pcDNA3-HA/NHE6^527-588 was designed from pcDNA3-HA/NHE6 using the following primers: […]
HT-1080 cells were stably transfected with Polyethylenimine (PEI, MirusBio) and positive cells were selected with Geneticin™ (G418) at 400 μg/mL. In the case of MDA-MB-231 cells, plasmids were transfected using Lipofectamine™ 2000 ([…]) and G418 was added to cell cultures at a concentration of 2 mg/mL.
Cells (5×10^3) were cultured in 96-well plates and pre-incubated under 21% O2 or 1% O2 for 4 h following the addition of drugs for 72 h. Cell viability was measured using the 3-(4,5-dimethylthiazol-2-yl)-2,5-diphenyltetrazolium bromide (MTT) dye (Life Technologies) according to manufacturer's instructions. Because hypoxic conditions may affect the reduction of MTT to formazan, incubation of all cell cultures with MTT were performed under normoxic conditions. Each experiment was performed in triplicate and at least three independent experiments were performed. Log-scale dose-response data were plotted on a graph and a three-parameter non-linear regression was applied to determine IC50 values. For calculation of the IC50s, both normoxic and hypoxic drug-treated samples were normalized with their untreated counterpart.
The middle portion (position 527-588) of the NHE6 cytoplasmic tail has previously been reported to interact with RACK1^31. Stable HT-1080 cells expressing the NHE6^527-588 fragment or a scrambled counterpart were generated.

NHE6-RACK1 interaction = experiment: Co-immunoprecipitation of NHE6 with RACK1 in HT-1080; type: cell-based, human; details: HT-1080, ectopic expression of the sequence, 1% O2, 4 h
Experimental: Cells were lysed on ice in NP-40-containing buffer (50 mM Tris-HCl pH 8.0, 150 mM NaCl, 1% NP-40, 5 mM EDTA, phosphatase and protease inhibitors). Cell lysates were centrifuged at 13,000 rpm at 4° C. and protein concentration determined using the BCA protein assay (Thermo Fisher Scientific). After a pre-clearing step with protein A/G-agarose beads (GE Healthcare), protein complexes were immunoprecipitated overnight at 4° C. Samples were incubated in SDS-loading buffer for 30 minutes at room temperature to avoid transmembrane protein aggregates upon heating in a boiling water bath. Proteins were separated by SDS-PAGE electrophoresis, transferred to a PVDF membrane and immunoblotting was performed as described, using anti-NHE6 (1:1000), anti-NHE9 (1:1000) anti-RACK1 (1:2000), anti-tubulin (1:5000), anti-actin (1:5000) anti-HA (1:1000), anti-PKC (1:200), anti-phospho PKC substrate (1:1000), anti-LAMP2 (1:200), anti-P-glycoprotein (1:200) and HRP-conjugated secondary antibodies (1/10 000)^66.

HT-1080 cells [2] = experiment: Intracellular localization of Dox by confocal live-cell imaging, HT-1080; type: cell-based, human; details: HT-1080, expression of the peptide, 1% O2, 4 h
Experimental: Cells were cultured in 25 mm-diameter glass coverslips (Thermo Fisher Scientific) and incubated under various conditions (as indicated in the FIG. legends). Cells were then incubated for 2 h in a medium containing Dox (2 μM). After the incubation period, cells were washed to remove excess Dox and left in drug-free media for 10 min. […] Coverslips were mounted on glass slides and placed on a 37° C. warmed stage of an Olympus Fluoview™ FV1000 (Olympus, Tokyo, Japan) confocal laser scanning microscope. Dox was excited with a green helium neon laser (543 nm) and emitted fluorescence intensity was measured. Images were acquired on the same day, typically from 10-20 cells of similar size from each experimental condition, using identical instrument settings.

[3] = test system: MDA-MB-231 tumor xenografts; experiment: Chorioallantoic membrane (CAM) xenograft assay, MDA-MB-231; type: in vivo, chick embryo; details: NHE6^527-588-overexpressing MDA-MB-231 xenografts on CAM, 1 μM Dox
Experimental: (§1) Fertilized eggs from white leghorn chicken were obtained from Public Health Agency of Canada (Nepean, ON). Ethics approval was obtained from the Ethics Committee on Animal Research of the University of Sherbrooke and all experimental procedures involving embryos were conducted in accordance with the regulations of the Canadian Council on Animal Care. Eggs were incubated in an Ova-Easy egg incubator (Brinsea) at 37° C. with 60% humidity. At Day 3, eggs were cracked as described^67. At Day 9, HT-1080 and MDA-MB-231 cell suspensions (1×10^6 and 2×10^6 cells, respectively) were mixed (1:1) with growth factor reduced Matrigel (BD Biosciences) in a total volume of 20 μl. Cell grafts were placed on top of the CAM and eggs were returned to the incubator for 96 h until Day 13 (n>6 chick embryos per cell line). When mentioned, 50 μl of Dox were added topically to the formed tumors (Day 13 after tumor cell grafting). At Day 16, chick embryos were euthanatized by decapitation. Tumors were removed and tumor volumes were calculated using the formula: (Dd^2/3). For RNA quantification, tumors were immediately snap-frozen in liquid nitrogen and kept at −80° C. until RNA extraction using the Trizol reagent.
(§2) To determine whether these observations were of relevance to tumor therapy in vivo, the inventors used an ex ovo chorioallantoic membrane (CAM) xenograft model in live chicken embryos^40. MDA-MB-231 or HT-1080 cells, or cells expressing either the NHE6^527-588 competing fragment or its scrambled counterpart were inoculated onto the CAM of 9-day-old chick embryos. After allowing 3 days for cells to engraft, tumors were treated with Doxorubicin or PBS. Four days later, chick embryos were euthanized, and tumors were removed for analysis (FIG. 10A). To first ascertain that tumors implanted in CAM developed hypoxia, total mRNA was extracted from tumors generated by untransfected HT-1080 cells and gene expression of the hypoxic markers CA9, GLUT1 and MCT4 was measured by qPCR. […]

HT-1080 cells [4] = experiment: Intracellular pH measurement (HPTS/SNARF-1) by confocal microscopy, HT-1080; type: cell-based, human; details: HT-1080, expression of the peptide, 1% O2, 4 h
Experimental: The pH sensing ratiometric dyes SNARF-1 and HPTS (Life Technologies) were used simultaneously for pH measurement of both cytoplasmic (C-SNARF-1) and endosomal/lysosomal (HPTS) compartments as previously described^30. Briefly, cells were cultured in 35 mm petri dishes (BD Biosciences) and used at 50% confluence. For endocytic labeling, cells were incubated overnight with HPTS (1 mM), washed, followed by a 20-min incubation with SNARF-1 (5 μM) to label the cytoplasmic compartment. Living cells were analyzed using an Olympus Fluoview™ FV1000 confocal microscope. Fluorescence emissions of both pH-sensing probes were recorded and subsequently analyzed as described^30.

NHE6 = NHE6 localization (cell-surface biotinylation, EEA1 immunofluorescence) in HT-1080; type: cell-based, human; details: HT-1080, expression of the peptide, 1% O2, 4 h
Experimental: Biotinylation steps were performed at […] Cells were grown on circular 15-mm diameter glass coverslips (Thermo Fisher Scientific) and incubated at 21% or 1% O2. Cells were then washed with PBS containing 1 mM CaCl2 and 0.5 mM MgCl2 (PBSCM) and incubated for 5 min with 0.3 mg/ml of EZ-Link Sulfo-NHS-SS-Biotin (Pierce) in PBSCM. Unreacted biotin was quenched using 100 mM glycine. Cells were fixed for 10 min at room temperature using 1% PFA in PBS. Prior to staining, cells were blocked with 5% of BSA for 1 h at room temperature. Biotinylated cells were stained with 5 μg/ml Streptavidin Texas Red (Invitrogen) for 1 h at 4° C. Coverslips were washed and mounted on a microscope slide using Vectashield mounting media (Vector labs).
Cultured cells were fixed with 1% PFA for 10 min at room temperature, permeabilized with saponin (0.05% in PBS) for 20 min, and blocked with 2% BSA in PBS for 30 min. Cells were then incubated with the appropriate primary and secondary antibodies as follows: anti-EEA1 (1/500), anti-Rab7 (1/500) and fluorophore-conjugated secondary antibodies (1/1000). Images were recorded using an Olympus Fluoview™ FV1000 confocal microscope using a 63× oil immersion objective.

HT-1080 tumor xenografts = experiment: Chorioallantoic membrane (CAM) xenograft assay, HT-1080; type: in vivo, chick embryo; details: NHE6^527-588-overexpressing HT-1080 xenografts on CAM, 0.5 μM Dox
Experimental: as §1, §2

B1: TKAESAWLFRMWYNFDHNYLKPLLTHSGPPLTTTLPACCGPIARCLTSPQAYENQEQLKDDD (protein)
chain: TKAESAWLFRMWYNFDHNYLKPLLTHSGPPLTTTLPACCGPIARCLTSPQAYENQEQLKDDD
notes: NHE6 cytoplasmic tail fragment 527-588, expressed in cells from a plasmid
increase in drug (Dox) sensitivity ([1]; hypoxia): 2.8 fold | sensitivity of the cells to Dox ([1]; normoxic conditions): did not change | hypoxia-induced interaction of NHE6 with RACK1 (NHE6-RACK1 interaction): prevented | hypoxia-induced diminution in nuclear Dox and Dox accumulation within endosomes (HT-1080 cells [2]): greatly impaired | tumor volume compared to xenografts overexpressing a control peptide [3]: small but significant decrease in tumor volume | hypoxia-induced intravesicular hyperacidification (HT-1080 cells [4]): greatly impaired | hypoxia-induced NHE6 relocalization from endosomes to the plasma membrane (NHE6): greatly impaired | tumor volume compared to xenografts overexpressing a control peptide (HT-1080 tumor xenografts): small but significant decrease in tumor volume
